Reference: paper PMC6037025

Molecular target: CHIP (UniProt Q9UNE7)
Assay: co-IP with anti-MYC-agarose, Western blot
Settings: reference: Flag-IRS4 wild type; sites S859

IRS4 (from UniProt O14654) Flag-IRS4 S859A
binding against the reference: lost
